Laboratory results published in PMC7026339, “Human bone morphogenetic protein-2 (hBMP-2) characterization by physical–chemical, immunological and biological assays” (AMB Express, 2020).

Biological target: the molecule itself
Experiment: SDS-PAGE and Western blotting under non-reducing conditions; 15% acrylamide gel, Coomassie Blue G stain; Western blot with anti-hBMP-2 rabbit IgG; non-reducing conditions; shows the disulfide-linked dimer

B1: E. coli-derived methionyl-human bone morphogenetic protein-2 (met-hBMP-2, GenScript) (natural protein)
chain: MQAKHKQRKRLKSSCKRHPLYVDFSDVGWNDWIVAPPGYHAFYCHGECPFPLADHLNSTNHAIVQTLVNSVNSKIPKACCVPTELSAISMLYLDENEKVVLKNYQDMVVEGCGCR
notes: initial methionine of methionyl-hBMP-2 (printed as 'initial Met'); human bone morphogenetic protein-2, mature protein of 114 AA (theoretical backbone 12,905 Da without the initial Met; 13,036 Da with it); theoretical mass of the dimer 26,072 Da; also called E. coli-derived hBMP-2; GenScript preparation; source: bought: GenScript (from E. coli), lyophilized, reconstituted in 20 mM acetic acid
In the case of B1, the “stoichiometry N” value is reported as 2.

B2: CHO-derived hBMP-2 (Infuse, Medtronic), 114 amino acid glycosylated subunit (form A) (natural protein, human, UniProt P12643 283-396, looked up)
chain: QAKHKQRKRLKSSCKRHPLYVDFSDVGWNDWIVAPPGYHAFYCHGECPFPLADHLNSTNHAIVQTLVNSVNSKIPKACCVPTELSAISMLYLDENEKVVLKNYQDMVVEGCGCR
modifications: glycosylated at one site with high-mannose-type glycans
notes: human bone morphogenetic protein-2, authentic mature protein of 114 AA without initial Met (backbone 12,905 Da); Infuse is a disulfide-linked dimeric protein with two major subunit species of 114 and 131 amino acids; this molecule is the 114 AA subunit; also called 14,377 Da form; 114 AA monomer
With B2 the “stoichiometry N” value was 2.
